Changes are numbered by the printed parent chain.
T1: hu(NA1)BA-avi-His, biotinylated (human, biotin on the avi-tag)
T1 construct: CEACAM5 domains N and A1 followed by two CEACAM1 Ig domains, avi-tag and his-tag; also called CEA antigen; chimera of CEACAM5 domains N and A1 on CEACAM1
T1 chain: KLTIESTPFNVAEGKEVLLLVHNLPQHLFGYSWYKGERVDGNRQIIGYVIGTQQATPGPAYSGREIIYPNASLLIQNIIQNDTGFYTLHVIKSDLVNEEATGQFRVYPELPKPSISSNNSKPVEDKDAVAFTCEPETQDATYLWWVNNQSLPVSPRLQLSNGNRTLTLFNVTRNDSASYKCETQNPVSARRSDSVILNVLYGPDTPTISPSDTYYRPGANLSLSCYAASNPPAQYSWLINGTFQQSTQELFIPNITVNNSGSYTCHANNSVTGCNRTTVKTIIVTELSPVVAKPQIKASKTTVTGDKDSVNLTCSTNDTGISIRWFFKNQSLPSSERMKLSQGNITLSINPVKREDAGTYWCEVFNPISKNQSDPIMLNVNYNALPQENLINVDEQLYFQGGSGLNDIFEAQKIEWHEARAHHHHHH

T2: MCSP antigen, amino acids 1553 to 2184 of matured MCSP with C-terminal avi-tag and His-tag, biotinylated (Homo sapiens (Human), UniProt Q6UVK1 1582-2213, limits assumed, biotin on the avi-tag)
T2 construct: also called recombinant MCSP
T2 sequence: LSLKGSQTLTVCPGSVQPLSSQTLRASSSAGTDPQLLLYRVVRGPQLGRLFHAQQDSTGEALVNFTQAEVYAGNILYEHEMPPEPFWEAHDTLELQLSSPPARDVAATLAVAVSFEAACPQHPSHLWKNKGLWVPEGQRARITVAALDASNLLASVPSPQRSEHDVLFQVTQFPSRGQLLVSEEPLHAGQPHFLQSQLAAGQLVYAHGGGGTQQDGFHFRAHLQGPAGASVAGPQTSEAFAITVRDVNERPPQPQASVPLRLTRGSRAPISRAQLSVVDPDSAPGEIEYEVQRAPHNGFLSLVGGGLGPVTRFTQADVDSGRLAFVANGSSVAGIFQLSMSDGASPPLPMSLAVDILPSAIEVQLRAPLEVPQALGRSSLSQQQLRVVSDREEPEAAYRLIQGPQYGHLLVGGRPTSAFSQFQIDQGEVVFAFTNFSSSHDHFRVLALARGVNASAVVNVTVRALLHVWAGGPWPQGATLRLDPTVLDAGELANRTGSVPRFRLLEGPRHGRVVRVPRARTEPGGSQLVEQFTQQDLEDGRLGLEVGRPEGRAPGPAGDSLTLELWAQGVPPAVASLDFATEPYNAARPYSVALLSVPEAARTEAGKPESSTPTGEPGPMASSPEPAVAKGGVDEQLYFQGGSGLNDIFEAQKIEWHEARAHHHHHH

T3: full-length human CEA with N-terminal SNAP tag on transfected HEK293 cells (human, UniProt P06731 35-685, SNAP tag labelled with terbium)
T3 construct: whole, on cells; also called hu CEA-SNAP; CEACAM5
T3 sequence (looked up): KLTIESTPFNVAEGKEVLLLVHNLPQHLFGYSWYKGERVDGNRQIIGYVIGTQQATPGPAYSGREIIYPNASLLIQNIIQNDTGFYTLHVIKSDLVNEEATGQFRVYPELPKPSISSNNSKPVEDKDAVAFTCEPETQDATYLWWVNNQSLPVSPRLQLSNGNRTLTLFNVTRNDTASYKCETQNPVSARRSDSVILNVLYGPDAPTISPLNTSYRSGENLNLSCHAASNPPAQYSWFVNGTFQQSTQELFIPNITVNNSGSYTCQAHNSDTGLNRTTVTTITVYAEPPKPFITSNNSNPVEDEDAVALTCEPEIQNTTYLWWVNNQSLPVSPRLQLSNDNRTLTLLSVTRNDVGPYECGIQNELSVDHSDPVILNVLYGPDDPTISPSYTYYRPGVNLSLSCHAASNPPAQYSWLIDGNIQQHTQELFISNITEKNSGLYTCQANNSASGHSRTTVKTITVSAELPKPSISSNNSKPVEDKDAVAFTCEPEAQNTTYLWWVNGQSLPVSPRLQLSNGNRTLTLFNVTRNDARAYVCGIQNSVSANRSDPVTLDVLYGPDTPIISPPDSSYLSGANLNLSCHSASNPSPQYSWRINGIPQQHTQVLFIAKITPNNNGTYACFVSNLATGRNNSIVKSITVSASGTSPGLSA

B1: anti-CEA aVH P118.089 (VHH)
VHH: EVQLVESGGGLVQPGGSLRLSCAASGFNIKDTCIGWVRRAPGKEEELVASICQYSGYTRYADSVKGRFTISADTSKNTAYLQMNSLRAEDTAVYYCAITSHHGDYNYWGQGTTVTVSS
B2: anti-CEA aVH P123.065 (VHH)
VHH: EVQLVESGGGLVQPGGSLRLSCAASGFNIKDSSTYIGWVRRAPGKEEELVASISCSRGNTRYADSVKGRFTISCDTSKNTAYLQMNSLRAEDTAVYYCAHPRYTWYDYWGQGTTVTVSS
B3: anti-CEA aVH P112.083 (VHH)
VHH: EVQLVESGGGLVQPGGSLRLSCAASGFNIKDTCIGWVRRAPGKEEELVADICPYKGSTRYADSVKGRFTISADTSKNTAYLQMNSLRAEDTAVYYCAIVSARDGYYNYWGQGTTVTVSS
B4: anti-CEA aVH P118.008 (VHH)
VHH: B3 VHH with D50Y, P53N, K55T, S57Y, V99T, A101Y, R102H, D103G, G104Q, Y105G
B5: anti-CEA aVH P124.067 (VHH)
VHH: B3 VHH with D50A, P53E, S57Y, V99A, A101P, R102V, G104Q
B6: anti-CEA aVH P118.093 (VHH)
VHH: B3 VHH with Y54S, K55Y, S57G, A101K, R102I, G104Q
B7: anti-CEA aVH P127.141 (VHH)
VHH: B3 VHH with D50G, P53E, K55T, A101Q, R102S, D103R, G104S, Y105V
B8: anti-CEA aVH P112.068 (VHH)
VHH: B3 VHH with D50K, P53K, K55S, S57H, I98A, A101V, Y105H
B9: anti-CEA aVH P124.037 (VHH)
VHH: B3 VHH with D50Q, P53Q, K55H, S100G, A101Q, R102N, D103Y, G104P, Y105V
B10: anti-FAP aVH P054.035 (VHH)
VHH: EVQLVESGGGLVQPGGSLRLSCAASGFNIKDTCIGWVRRAPGKEEELVANICGSYGHTRYADSVKGRFTISADTSKNTAYLQMNSLRAEDTAVYYCASSYTVYRSYAYWGQGTTVTVSS
B11: anti-FAP aVH P053.020 (VHH)
VHH: B10 VHH with N50R, S54Q, Y55I, H57S, S98T, A107D
B12: anti-FAP aVH P054.064 (VHH)
VHH: B10 VHH with Y55N, H57Y, S105G, A107D
B13: anti-FAP aVH P048.019 (VHH)
VHH: B10 VHH with G53P, S54K, Y55H, H57A, S98Y, Y100G, T101N, R104N, S105R, A107K
B14: anti-FAP aVH P032.056 (VHH)
VHH: EVQLVESGGGLVQPGGSLRLSCAASSFNIKDTYIGWVRRAPGKEEELVANIHCRSGYTRYADSVKGRFTISCDTSKNTAYLQMNSLRAEDTAVYYCAHSGSRYIYKYWGQGTTVTVSS
B15: anti-FAP aVH P031.033 (VHH)
VHH: EVQLVESGGGLVQPGGSLRLSCAASGFNIKDTCIGWVRRAPGKEEELVANICGQYGQTRYADSVKGRFTISADTSKNTAYLQMNSLRAEDTAVYYCAKSGGRHGYEYWGQGTTVTVSS
B16: anti-FAP aVH P034.001 (VHH)
VHH: B15 VHH with Q54S, Y55I, Q57A, R102H, H103K, E106R
B17: anti-FAP aVH P058.068 (VHH)
VHH: B15 VHH with G53Q, Q54T, Y55H, Q57Y, K98Y, S99K, R102G, H103R, G104Y, E106D
B18: anti-FAP aVH P034.007 (VHH)
VHH: B15 VHH with Q54G, Y55D, Q57H, K98T, G100Y, G101T, R102V, H103Y, G104R, E106Y
B19: anti-MCSP aVH clone 44 (VHH)
VHH: EVQLVESGGGLVQPGGSLRLSCAASGFNIKDGYIDWVRRAPGKGTELVASIECTNGRATRYADSVKGRFTISCDTSKNTAYLQMNSLRAEDTAVYYCAYAGIGYYFYYWGQGTTVTVSS
B20: anti-MCSP aVH clone 2 (VHH)
VHH: EVQLVESGGGLVQPGGSLRLSCAASSFNIKDTYIGWVRRAPGKGTELVASIDCIYGYTRYADSVKGRFTISCDTSKNTAYLQMNSLRAEDTAVYYCAAQGYRLHYWGQGTTVTVSS
B21: anti-MCSP aVH clone 57.1 (VHH)
VHH: EVQLVESGGGLVQPGGSLRLSCAASGFNIKQNCIEWVRRAPGKGTELVANICHDIGSTRYADSVKGRFTISADTSKNTAYLQMNSLRAEDTAVYYCAAWEQKGFNYWGQGTTVTVSS
B22: LAG3 P10D1 aVH (VHH)
VHH: EVQLVESGGGLVQPGGSLRLSCAASGFSIKDTCIAWVRRAPGKGTELVAEICEDIGYTRYADSVKGRFTISADTSKNTAYLQMNSLRAEDTAVYYCAAKEAGVGFDYWGQGTTVTVSS
notes: also called P110D1

Target: T1, hu(NA1)BA-avi-His, biotinylated
Assay: SPR, purified aVH
Experimental: CEACAM1-avi-his was again used as a negative control Immobilization of recombinant antigens (ligand): Antigen was diluted with PBST (10 mM phosphate, 150 mM sodium chloride pH 7.4, 0.005% Tween 20) to 10 μg/ml, then injected at 30 μl/minute at varying contact times, to achieve immobilization levels of 200, 400 or 800 response units (RU) in vertical orientation. […] Buffer (PBST) was injected along the sixth channel to provide an “in-line” blank for referencing. Association rate constants (kₒₙ) and dissociation rate constants (koff) were calculated using a simple one-to-one Langmuir binding model in ProteOn Manager v3.1 software by simultaneously fitting the association and dissociation sensorgrams. The equilibrium dissociation constant (KD) was calculated as the ratio koff/kₒₙ.

Binder	Kd [nM]
B1	37.9
B2	89.1
B3	7.26
B4	96.2
B5	296
B6	102
B7	135
B8	16.2
B9	15.2

Each binder was assayed against T4, human FAP avi his, biotinylated (human, UniProt Q12884 27-759, biotin on the avi-tag) (assay: SPR, bacterial supernatant;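 also: SPR at 25 °C with biotinylated human or murine FAP captured via neutravidin, aVH-containing bacterial supernatants diluted 1:3 as analyte, 600 s dissociation, blank supernatant without aVH as reference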).
T4 construct: also called huFAP
Experimental: (§1) Clones that were identified in the “mix-and-read assay” performed with the Mirrorball instrument were further analyzed by Surface Plasmon Resonance (SPR). The off-rate of selected aVH clones was measured using a ProteOn XPR36 instrument (Biorad) at 25° C. with biotinylated human and murine FAP antigen immobilized on NLC chips by neutravidin capture. Immobilization of recombinant antigens (ligand): Antigens were diluted with PBST (10 mM phosphate, 150 mM sodium chloride pH 7.4, 0.005% Tween 20) to 10 μg/ml, then injected at 30 μl/minute at varying contact times, to achieve immobilization levels of 400, 800 or 1600 response units (RU) in vertical orientation. Injection of analytes: Injection direction was changed to horizontal orientation and 5 individual aVH-containing supernatants that were diluted 1:3 with PBST were injected simultaneously at 60 μl/min along separate channels 1-5, with association times between 120 and 180s, and dissociation times of 600s. Diluted bacterial supernatant without aVH was injected along the sixth channel to provide an “in-line” blank for referencing. Dissociation rate constants (koff) were calculated using the “koff-rate” calculation in ProteOn Manager v3.1 software.

Binder	koff [s⁻¹]	binding result
B10	0.0141	
B11	0.0125	
B12	0.0161	
B13	0.00547	
B14		no binding
B15		no binding
B16		no binding
B17	0.00316	
B18	0.00385	

The binders below were run against T5, murine FAP avi his, biotinylated (murine, UniProt P97321 27-761, biotin on the avi-tag) (assay: SPR, bacterial supernatant;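 also: SPR at 25 °C with biotinylated human or murine FAP captured via neutravidin, aVH-containing bacterial supernatants diluted 1:3 as analyte, 600 s dissociation, blank supernatant without aVH as reference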).
T5 construct: also called muFAP; mu FAP
Experimental: as §1

Binder	koff [s⁻¹]	binding result
B10	0.0151	
B11	0.0294	
B12	0.0312	
B13	0.0171	
B14	0.0222	
B15	0.0106	
B16	0.0176	
B17		no binding
B18	0.0106	

Target: T1, hu(NA1)BA-avi-His, biotinylated
Assay: SPR, bacterial supernatant;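 as to result: SPR at 25 °C with biotinylated human or murine FAP captured via neutravidin, aVH-containing bacterial supernatants diluted 1:3 as analyte, 600 s dissociation, blank supernatant without aVH as reference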
Experimental: The off-rate of selected aVH clones was measured using a ProteOn XPR36 instrument (Biorad) at 25° C. with biotinylated hu(NA1)BA-avi-His immobilized on NLC chips by neutravidin capture. CEACAM1-avi-his was used as a negative control. Immobilization of recombinant antigens (ligand): Antigens were diluted with PBST (10 mM phosphate, 150 mM sodium chloride pH 7.4, 0.005% Tween 20) to 10 μg/ml, then injected at 30 μl/minute at varying contact times, to achieve immobilization levels of 400, 800 or 1600 response units (RU) in vertical orientation. Injection of analytes: Injection direction was changed to horizontal orientation and 5 individual aVH-containing supernatants that were diluted 1:3 with PBST were injected simultaneously at 60 μl/min along separate channels 1-5, with association times between 120 and 180s, and dissociation times of 800s. Diluted bacterial supernatant without aVH was injected along the sixth channel to provide an “in-line” blank for referencing. Dissociation rate constants (koff) were calculated using the “koff-rate” calculation in ProteOn Manager v3.1 software.

Binder	koff [s⁻¹]
B1	0.0599
B2	0.0278
B3	0.00034
B4	0.0305
B5	0.00704
B6	0.033
B7	0.0317
B8	0.0016
B9	0.0395

What follows are binders tested against T2, MCSP antigen, amino acids 1553 to 2184 … (assay: SPR, MCSP immobilised).

Binder	Kd [nM]	koff [s⁻¹]	kon [M⁻¹ s⁻¹]
B19	109	0.0163	150000
B20	8	0.00339	458000
B21	48	0.0142	295000

The binders below were run against T3, full-length human CEA with N-terminal … (assay: FRET (TagLite) on hu CEA-SNAP cells).
Experimental: Binding of a selected set of purified aVH binders to their epitope on CEA-expressing cells was determined by Fluorescence Resonance Energy Transfer (FRET) analysis. For this analysis, the DNA sequence encoding for the SNAP Tag (plasmid purchased from Cisbio) was amplified by PCR and ligated into an expression vector, containing the full length human CEA sequence. The resulting fusion protein was comprised of full-length CEA with an N-terminal SNAP tag. HEK293 cells were transfected with 10 μg DNA using Lipofectamine 2000 as transfection reagent. After an incubation time of 20 h, cells were washed with PBS and incubated for 1 h at 37° C. in LabMed buffer (Cisbio) containing 100 nM SNAP-Lumi4Tb (Cibsio), leading to specific labeling of the SNAP Tag. Subsequently, cells were washed 4 times with LabMed buffer to remove unbound dye. […] Cells were then stored frozen at −80° C. for up to 6 months. Binding was measured by adding CEA-specific aVH binders at a concentration ranging from 0.005 up to 100 nM to labeled cells (100 cells per well) followed by addition of d2-labeled anti-his tag antibody (Cisbio, final concentration was 200 nM per well) as acceptor molecule for the FRET. […] The ratio of acceptor to donor emission was calculated and the ratio of the background control (cells only incubated with anti-his tag antibody) subtracted. Curves were analysed in GraphPad Prism5 (FIG. 9) and KDs calculated (Table 26).

Binder	Kd [nM]
B1	16.8
B2	190
B3	10.4
B4	28.6
B5	74.3
B6	47.3
B7	28.3
B8	14.6
B9	11.1

The binders below were run against T6, soluble human Lag3-IgG1-Fc with biotinylated C-terminal Avi-tag (human, biotin on the Avi-tag) (assay: SPR, LAG3-Fc immobilised).
T6 construct: Lag3 ECD, IEGRMD linker, IgG1 Fc, Avi-tag; also called LAG3-Fc-avi; biotinylated LAG3-Fc
T6 sequence (chain, as listed by the source limits assumed): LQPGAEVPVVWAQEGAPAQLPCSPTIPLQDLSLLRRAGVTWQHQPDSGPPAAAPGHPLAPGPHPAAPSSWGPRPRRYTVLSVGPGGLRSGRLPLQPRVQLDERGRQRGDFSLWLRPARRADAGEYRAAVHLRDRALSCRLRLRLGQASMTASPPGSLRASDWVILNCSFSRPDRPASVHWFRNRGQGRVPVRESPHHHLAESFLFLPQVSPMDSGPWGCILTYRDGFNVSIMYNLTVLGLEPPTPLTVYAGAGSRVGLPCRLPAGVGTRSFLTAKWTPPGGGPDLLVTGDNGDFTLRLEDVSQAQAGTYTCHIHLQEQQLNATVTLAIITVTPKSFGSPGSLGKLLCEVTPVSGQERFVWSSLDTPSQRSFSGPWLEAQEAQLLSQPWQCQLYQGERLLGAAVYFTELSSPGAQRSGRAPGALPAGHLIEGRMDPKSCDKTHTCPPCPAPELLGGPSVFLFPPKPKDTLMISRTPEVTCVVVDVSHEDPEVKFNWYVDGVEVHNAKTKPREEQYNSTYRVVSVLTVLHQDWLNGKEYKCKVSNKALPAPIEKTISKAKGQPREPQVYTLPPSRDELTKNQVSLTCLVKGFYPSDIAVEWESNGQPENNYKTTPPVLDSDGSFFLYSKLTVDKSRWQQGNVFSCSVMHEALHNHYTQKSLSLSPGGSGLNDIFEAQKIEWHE

Binder	Kd [nM]	koff [s⁻¹]	kon [M⁻¹ s⁻¹]
B22	27	0.00383	144000
